From patent US20240368642A1, “COMPOSITIONS AND METHODS FOR PRODUCTION OF VALUE-ADDED CHEMICALS” (Solugen, Inc., priority 2021, published 2024)
Converted amounts (≈) assume the structure as drawn.

How the values were obtained:
[1] = system: all three bacteria tested; assay: Antimicrobial testing, statement for all three bacteria tested; type: cell-based
Protocol: (§1) All three different heat incubated GDA samples were tested as antimicrobial agents with several different industrially relevant bacteria. The General Aerobic Bacteria isolated and used for this testing were identified as Pseudomonas aeruginosa and Enterobacter aggolomerans. Wild strain Sulfate Reducing Bacteria and Acid Producing Bacteria isolated from the produced fluids was also used. They were placed in a microtiter plate, where a high throughput test can be performed to determine MIC (minimum inhibitor concentration). Samples were tested at the following doses (1000, 500, 250, 125, 62.5, 31.2, 15.6, 7.8, 3.9, and 1.95ppm) and concentration was calculated based on the initial GDA concentration (15 w/v %).
(§2) The antimicrobial testing results shown in FIG. 49 summarizes the MIC of each sample for different bacteria.

[2] = system: APB (Acid Producing Bacteria); assay: Microtiter MIC study, acid producing bacteria; type: cell-based, Acid Producing Bacteria isolated from the produced fluids; conditions: 24 hours of incubation; concentration based on initial GDA concentration
Protocol: as §1, §2

[3] = system: General Wild Strain Bacteria; assay: Microtiter MIC study, general wild strain bacteria; type: cell-based, Pseudomonas aeruginosa and Enterobacter aggolomerans; conditions: 24 hours of incubation; concentration based on initial GDA concentration
Protocol: as §1, §2

[4] = Glucarate dehydratase reaction with gluconate or glucuronate as substrate; type: biochemical; conditions: 0.01% w/v GlucD, 10 mM substrate, pH 7.5, 24 hours
Protocol: (§3) A 100 μL volume was prepared containing 0.01% w/v Escherichia coli glucarate dehydratase (GlucD), 10 mM substrate (glucarate, gluconate, or glucuronate), 50 mM potassium phosphate, pH 7.5, 5 mM MgSO4, and 100 mM NaCl. The reaction was allowed to proceed for 24 hours and consumption of glucaric acid was monitored via LCMS at 0, 5mins, 20 mins, 1 hr, 2 hrs, and 24 hours. Full conversion of glucarate was observed within 20 minutes. […] The reaction is schematized in FIG. 36 and the results are graphed in Figure

[5] = Glucarate dehydratase reaction on glucarate monitored via LCMS; type: biochemical; conditions: pH 7.5
Protocol: as §3
To determine optimal enzyme loading, a 100 μL volume was prepared containing 0.001, 0.002, 0.005, or 0.01% w/v glucarate dehydratase (GlucD), 10% w/v glucarate, 50 mM potassium phosphate, pH 7.5, 5 mM MgSO4, and 100 mM NaCl. The reaction was allowed to proceed for 74 hours and formation of 4-deoxy-5-keoglucarate and consumption of glucarate was monitored via reverse phase LCMS. […] The reaction is schematized in FIG. 36 and the results are graphed in FIG. 40.

[6] = Specific activity of pyranose oxidase (POX) enzymes; type: biochemical; conditions: Table 4; unit = 1 umol of substrate consumed min^−1
Excerpt: POX is a flavin-dependent enzyme found in lignocellulose-degrading fungi that oxidizes glucose to 2-ketoglucose concomitantly with hydrogen peroxide formation. Recombinant Trametes hirsuita POX is currently used in the food industry for baking, providing some evidence that the enzyme can be produced at low cost. A unit is defined as 1 umol of substrate consumed min^−1. Based on an in-house empirical evaluation, the Irpex lacteus, Trametes multicolor, and Phanerochaete chrysosporium POXs have sufficient starting activity. This is presented graphically in FIG. 32 and Table 4.

[7] = Table 4; previously characterized POX enzymes; cited from earlier work

Oc1ccc(O)c(O)c1O (single isomer, unassigned) [1,2,3,4-tetrahydroxybenzene]
antimicrobial activity (in words) [1]: good antimicrobial activity

O=CCCCC=O [Glutaraldehyde - 50%, Glutaraldehyde]
MIC [2]: 500 µg/mL (≈ 4.99 mM) | MIC [3]: 1000 µg/mL (≈ 9.99 mM)

GlucD: Escherichia coli glucarate dehydratase
reaction with gluconic or glucuronic acid as substrate [4]: No reaction was observed | time to full conversion of glucarate ([5]; 0.005% enzyme, 10% w/v glucarate): ≤ 24 h | time to full conversion of glucarate ([5]; 0.01% w/v GlucD, 10 mM glucarate): ≤ 0.333 h

Irpex lacteus: POX enzyme of Irpex lacteus
Specific Activity (in-house evaluation) [6]: 6.0 (in-house U mg^−1 | Specific Activity (previously characterized) [7]: evaluation), 86 U mg^−1

Trametes multicolor: POX enzyme of Trametes multicolor
Specific Activity (in-house evaluation) [6]: 6.8 (in-house U mg^−1

B1: Lyophyllum shimeji: POX enzyme of Lyophyllum shimeji (protein, UniProt Q75ZP8 1-618, looked up)
Pyranose 2-oxidase: MSLSTEQMLRDYPRSMQINGQIPKNAIHETYGNDGVDVFIAGSGPIGATYAKLCVEAGLRVVMVEIGAADSFYAVNAEEGTAVPYVPGYHKKNEIEFQKDIDRFVNVIKGALQQVSVPVRNQNVPTLDPGAWSAPPGSSAISNGKNPHQREFENLSAEAVTRGVGGMSTHWTCSTPRIHPPMESLPGIGRPKLSNDPAEDDKEWNELYSEAERLIGTSTKEFDESIRHTLVLRSLQDAYKDRQRIFRPLPLACHRLKNAPEYVEWHSAENLFHSIYNDDKQKKLFTLLTNHRCTRLALTGGYEKKIGAAEVRNLLATRNPSSQLDSYIMAKVYVLASGAIGNPQILYNSGFSGLQVTPRNDSLIPNLGRYITEQPMAFCQIVLRQEFVDSVRDDPYGLPWWKEAVAQHIAKNPTDALPIPFRDPEPQVTTPFTEEHPWHTQIHRDAFSYGAVGPEVDSRVIVDLRWFGATDPEANNLLVFQNDVQDGYSMPQPTFRYRPSTASNVRARKMMADMCEVASNLGGYLPTSPPQFMDPGLALHLAGTTRIGFDKATTVADNNSLVWDFANLYVAGNGTIRTGFGENPTLTSMCHAIKSARSIINTLKGGTDGKNTGEHRNL
Specific Activity (previously characterized) [7]: 1.92 U mg^−1
